Laboratory results taken from IntAct's records for PubMed 22904282.

B1: DNA-directed RNA polymerase subunit beta (Mycobacterium tuberculosis (strain ATCC 25618 / P9WGY9 (parent)
chain: MLEGCILADSRQSKTAASPSPSRPQSSSNNSVPGAPNRVSFAKLREPLEVPGLLDVQTDSFEWLIGSPRWRESAAERGDVNPVGGLEEVLYELSPIEDFSGSMSLSFSDPRFDDVKAPVDECKDKDMTYAAPLFVTAEFINNNTGEIKSQTVFMGDFPMMTEKGTFIINGTERVVVSQLVRSPGVYFDETIDKSTDKTLHSVKVIPSRGAWLEFDVDKRDTVGVRIDRKRRQPVTVLLKALGWTSEQIVERFGFSEIMRSTLEKDNTVGTDEALLDIYRKLRPGEPPTKESAQTLLENLFFKEKRYDLARVGRYKVNKKLGLHVGEPITSSTLTEEDVVATIEYLVRLHEGQTTMTVPGGVEVPVETDDIDHFGNRRLRTVGELIQNQIRVGMSRMERVVRERMTTQDVEAITPQTLINIRPVVAAIKEFFGTSQLSQFMDQNNPLSGLTHKRRLSALGPGGLSRERAGLEVRDVHPSHYGRMCPIETPEGPNIGLIGSLSVYARVNPFGFIETPYRKVVDGVVSDEIVYLTADEEDRHVVAQANSPIDADGRFVEPRVLVRRKAGEVEYVPSSEVDYMDVSPRQMVSVATAMIPFLEHDDANRALMGANMQRQAVPLVRSEAPLVGTGMELRAAIDAGDVVVAEESGVIEEVSADYITVMHDNGTRRTYRMRKFARSNHGTCANQCPIVDAGDRVEAGQVIADGPCTDDGEMALGKNLLVAIMPWEGHNYEDAIILSNRLVEEDVLTSIHIEEHEIDARDTKLGAEEITRDIPNISDEVLADLDERGIVRIGAEVRDGDILVGKVTPKGETELTPEERLLRAIFGEKAREVRDTSLKVPHGESGKVIGIRVFSREDEDELPAGVNELVRVYVAQKRKISDGDKLAGRHGNKGVIGKILPVEDMPFLADGTPVDIILNTHGVPRRMNIGQILETHLGWCAHSGWKVDAAKGVPDWAARLPDELLEAQPNAIVSTPVFDGAQEAELQGLLSCTLPNRDGDVLVDADGKAMLFDGRSGEPFPYPVTVGYMYIMKLHHLVDDKIHARSTGPYSMITQQPLGGKAQFGGQRFGEMECWAMQAYGAAYTLQELLTIKSDDTVGRVKVYEAIVKGENIPEPGIPESFKVLLKELQSLCLNVEVLSSDGAAIELREGEDEDLERAAANLGINLSRNESASVEDLA
partner: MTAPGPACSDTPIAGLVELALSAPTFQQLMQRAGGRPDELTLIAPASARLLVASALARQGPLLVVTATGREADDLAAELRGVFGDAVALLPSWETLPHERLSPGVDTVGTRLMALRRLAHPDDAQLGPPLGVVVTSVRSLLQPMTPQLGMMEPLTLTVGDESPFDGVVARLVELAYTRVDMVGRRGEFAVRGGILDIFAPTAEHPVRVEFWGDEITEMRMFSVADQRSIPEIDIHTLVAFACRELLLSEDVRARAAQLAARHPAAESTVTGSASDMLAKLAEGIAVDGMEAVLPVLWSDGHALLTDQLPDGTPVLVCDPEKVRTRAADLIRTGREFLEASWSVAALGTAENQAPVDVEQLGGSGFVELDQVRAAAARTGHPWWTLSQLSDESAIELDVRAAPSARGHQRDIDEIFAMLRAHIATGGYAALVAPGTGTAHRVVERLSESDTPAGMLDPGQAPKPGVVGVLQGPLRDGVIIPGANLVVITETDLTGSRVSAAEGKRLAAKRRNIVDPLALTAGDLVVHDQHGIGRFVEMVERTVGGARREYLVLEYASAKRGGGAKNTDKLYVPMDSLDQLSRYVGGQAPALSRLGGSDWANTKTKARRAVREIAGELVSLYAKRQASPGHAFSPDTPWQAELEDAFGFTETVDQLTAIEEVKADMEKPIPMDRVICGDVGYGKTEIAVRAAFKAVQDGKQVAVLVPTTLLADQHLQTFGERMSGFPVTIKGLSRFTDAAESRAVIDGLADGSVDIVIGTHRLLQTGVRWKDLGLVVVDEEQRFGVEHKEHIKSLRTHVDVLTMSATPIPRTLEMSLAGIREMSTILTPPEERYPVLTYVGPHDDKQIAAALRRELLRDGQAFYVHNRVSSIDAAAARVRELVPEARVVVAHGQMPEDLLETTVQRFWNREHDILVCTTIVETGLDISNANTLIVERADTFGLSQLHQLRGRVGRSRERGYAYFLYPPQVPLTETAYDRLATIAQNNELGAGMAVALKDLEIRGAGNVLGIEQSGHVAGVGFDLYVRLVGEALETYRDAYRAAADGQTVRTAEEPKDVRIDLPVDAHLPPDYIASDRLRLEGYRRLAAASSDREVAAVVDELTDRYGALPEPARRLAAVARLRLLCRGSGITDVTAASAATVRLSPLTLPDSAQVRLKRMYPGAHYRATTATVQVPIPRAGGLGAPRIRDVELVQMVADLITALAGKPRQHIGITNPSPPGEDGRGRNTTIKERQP
B2: DNA-directed RNA polymerase subunit beta (Mycobacterium tuberculosis (strain ATCC 25618 / P9WGY9 (parent)
chain: B1 chain
B3: RNA polymerase-binding transcription factor CarD (Mycobacterium tuberculosis (strain ATCC 25618 / P9WJG3 (parent)
chain: MIFKVGDTVVYPHHGAALVEAIETRTIKGEQKEYLVLKVAQGDLTVRVPAENAEYVGVRDVVGQEGLDKVFQVLRAPHTEEPTNWSRRYKANLEKLASGDVNKVAEVVRDLWRRDQERGLSAGEKRMLAKARQILVGELALAESTDDAKAETILDEVLAAAS

Variants of: B1
Conditions: with mfd_myctu mfd

Variant	effect of a mutation on the interaction
S149A	decreasing interaction strength
I147A	disrupting interaction
E138R	disrupting interaction

Variants of: B2
Conditions: with card_myctu carD

Variant	effect of a mutation on the interaction
S149A	decreasing interaction
I147A	disrupting interaction
E138R	disrupting interaction

Variants of: B3
Conditions: with rpob_myctu rpoB

Variant	effect of a mutation on the interaction
R47E	decreasing interaction strength
R25E	decreasing interaction strength
